# In patent US20160264649A1:
# Tests used:
# Test in all cases: cell-based or functional assay
# [1] = target: HIV-1 Env of isolate QH0692.42 (HIV-1)
# [2] = target: HIV-1 Env of isolate APV_17 (HIV-1)
# [3] = target: HIV-1 Env of isolate JRCSF (HIV-1) (UniProt P20871)
# [4] = target: HIV-1 Env of isolate APV_13 (HIV-1)
# [5] = target: HIV-1 Env of isolate 93TH305 (HIV-1)
# [6] = target: HIV-1 Env of isolate MG RM-C-022 (HIV-1)
# [7] = target: HIV-1 Env of isolate MGRM-Chronic-B-010 (HIV-1)
# [8] = target: HIV-1 Env of isolate PVO.4 (HIV-1)
# [9] = target: HIV-1 Env of isolate TRO.11 (HIV-1)
# [10] = target: HIV-1 Env of isolate 97ZA012 (HIV-1)
# [11] = target: HIV-1 Env of isolate MGRM-Chronic-B-020 (HIV-1)
# [12] = target: HIV-1 Env of isolate SF162 (HIV-1) (UniProt P19550)
# [13] = target: HIV-1 Env of isolate MGRM-Chronic-B-012 (HIV-1)
# [14] = target: HIV-1 Env of isolate 93MW959 (HIV-1)
# [15] = target: HIV-1 Env of isolate MGRM-Chronic-B-001 (HIV-1)
# [16] = target: HIV-1 Env of isolate MGRM-Chronic-B-011 (HIV-1)
# [17] = target: HIV-1 Env of isolate 6535.3 (HIV-1)
# [18] = target: HIV-1 Env of isolate NL43 (HIV-1)
# [19] = target: HIV-1 Env of isolate MG RM-C-020 (HIV-1)
# [20] = target: HIV-1 Env of isolate MGRM-Chronic-B-003 (HIV-1)
# [21] = target: HIV-1 Env of isolate JRFL (HIV-1)
# [22] = target: HIV-1 Env of isolate MGRM-Chronic-B-023 (HIV-1)
# [23] = target: HIV-1 Env of isolate 98IN022 (HIV-1)
# [24] = target: HIV-1 Env of isolate THR0.18 (HIV-1)
# [25] = target: HIV-1 Env of isolate SC422661.8 (HIV-1)
# [26] = target: HIV-1 Env of isolate MGRM-Chronic-B-002 (HIV-1)
# [27] = target: HIV-1 Env of isolate 93IN905 (HIV-1)
# [28] = target: HIV-1 Env of isolate MG RM-C-025 (HIV-1)
# [29] = target: HIV-1 Env of isolate MG RM-C-024 (HIV-1)
# [30] = target: HIV-1 Env of isolate TRJ04551.58 (HIV-1)
# [31] = target: HIV-1 Env of isolate MGRM-Chronic-B-018 (HIV-1)
# [32] = target: HIV-1 Env of isolate MGRM-Chronic-B-024 (HIV-1)
# [33] = target: HIV-1 Env of isolate MG RM-C-027 (HIV-1)
# [34] = target: HIV-1 Env of isolate MGRM-Chronic-B-004 (HIV-1)
# [35] = target: HIV-1 Env of isolate MG RM-C-028 (HIV-1)
# [36] = target: HIV-1 Env of isolate MG RM-C-026 (HIV-1)
# [37] = target: HIV-1 Env of isolate MG RM-C-023 (HIV-1)
# [38] = target: HIV-1 Env of isolate 92 BR 020 (HIV-1)
# [39] = target: HIV-1 Env of isolate MGRM-Chronic-B-017 (HIV-1)
# [40] = target: HIV-1 Env of isolate VLGCB3 (HIV-1)
# [41] = target: HIV-1 Env of isolate CAAN.A2 (HIV-1)
# [42] = target: HIV-1 Env of isolate MGRM-Chronic-B-008 (HIV-1)
# [43] = target: HIV-1 Env of isolate APV_6 (HIV-1)
substance,measurement,setting,value
PGT-121 monoclonal antibody (4838_L06; 4873_E03),neutralization IC50,[1],0.823 µg/mL
same,neutralization IC50,[2],0.066 µg/mL
same,neutralization IC50,[3],0.027 µg/mL
same,neutralization IC50,[4],0.251 µg/mL
same,neutralization IC50,[5],0.007 µg/mL
same,neutralization IC50,[6],0.015 µg/mL
same,neutralization IC50,[7],0.014 µg/mL
same,neutralization IC50,[8],0.137 µg/mL
same,neutralization IC50,[9],0.008 µg/mL
same,neutralization IC50,[10],0.002 µg/mL
same,neutralization IC50,[11],0.004 µg/mL
same,neutralization IC50,[12],0.005 µg/mL
same,neutralization IC50,[13],0.036 µg/mL
same,neutralization IC50,[14],0.013 µg/mL
same,neutralization IC50,[15],0.102 µg/mL
same,neutralization IC50,[16],> 50 µg/mL
same,neutralization IC50,[17],0.005 µg/mL
same,neutralization IC50,[18],> 50 µg/mL
same,neutralization IC50,[19],> 50 µg/mL
same,neutralization IC50,[20],0.011 µg/mL
same,neutralization IC50,[21],0.021 µg/mL
same,neutralization IC50,[22],0.005 µg/mL
same,neutralization IC50,[23],0.007 µg/mL
same,neutralization IC50,[24],> 50 µg/mL
same,neutralization IC50,[25],0.098 µg/mL
same,neutralization IC50,[26],0.386 µg/mL
same,neutralization IC50,[27],0.005 µg/mL
same,neutralization IC50,[28],46.8 µg/mL
same,neutralization IC50,[29],0.052 µg/mL
same,neutralization IC50,[30],7.09 µg/mL
same,neutralization IC50,[31],> 50 µg/mL
same,neutralization IC50,[32],0.195 µg/mL
same,neutralization IC50,[33],0.011 µg/mL
same,neutralization IC50,[34],0.009 µg/mL
same,neutralization IC50,[35],0.472 µg/mL
same,neutralization IC50,[36],0.002 µg/mL
same,neutralization IC50,[37],0.017 µg/mL
same,neutralization IC50,[38],0.014 µg/mL
same,neutralization IC50,[39],> 50 µg/mL
same,neutralization IC50,[40],0.005 µg/mL
same,neutralization IC50,[41],0.011 µg/mL
same,neutralization IC50,[42],0.007 µg/mL
PGT-126 monoclonal antibody (5141_B17),neutralization IC50,[1],0.048 µg/mL
same,neutralization IC50,[2],0.353 µg/mL
same,neutralization IC50,[3],0.008 µg/mL
same,neutralization IC50,[4],0.012 µg/mL
same,neutralization IC50,[5],0.013 µg/mL
same,neutralization IC50,[6],0.96 µg/mL
same,neutralization IC50,[7],0.005 µg/mL
same,neutralization IC50,[8],0.017 µg/mL
same,neutralization IC50,[9],0.041 µg/mL
same,neutralization IC50,[10],0.042 µg/mL
same,neutralization IC50,[11],0.021 µg/mL
same,neutralization IC50,[43],0.007 µg/mL
same,neutralization IC50,[12],0.003 µg/mL
same,neutralization IC50,[13],0.027 µg/mL
same,neutralization IC50,[14],9.44 µg/mL
same,neutralization IC50,[15],> 50 µg/mL
same,neutralization IC50,[16],0.108 µg/mL
same,neutralization IC50,[17],0.022 µg/mL
same,neutralization IC50,[18],> 50 µg/mL
same,neutralization IC50,[19],> 50 µg/mL
same,neutralization IC50,[20],0.041 µg/mL
same,neutralization IC50,[21],0.014 µg/mL
same,neutralization IC50,[22],> 50 µg/mL
same,neutralization IC50,[23],0.279 µg/mL
same,neutralization IC50,[24],> 50 µg/mL
same,neutralization IC50,[25],0.119 µg/mL
same,neutralization IC50,[26],0.078 µg/mL
same,neutralization IC50,[27],0.015 µg/mL
same,neutralization IC50,[28],0.786 µg/mL
same,neutralization IC50,[29],> 50 µg/mL
same,neutralization IC50,[30],0.025 µg/mL
same,neutralization IC50,[31],0.052 µg/mL
same,neutralization IC50,[32],> 50 µg/mL
same,neutralization IC50,[33],15.6 µg/mL
same,neutralization IC50,[34],0.01 µg/mL
same,neutralization IC50,[35],0.196 µg/mL
same,neutralization IC50,[36],0.007 µg/mL
same,neutralization IC50,[37],0.065 µg/mL
same,neutralization IC50,[38],0.015 µg/mL
same,neutralization IC50,[39],> 50 µg/mL
same,neutralization IC50,[40],0.007 µg/mL
same,neutralization IC50,[41],0.273 µg/mL
same,neutralization IC50,[42],5.89 µg/mL
PGT-127 monoclonal antibody (5145_B14),neutralization IC50,[1],0.129 µg/mL
same,neutralization IC50,[2],10.4 µg/mL
same,neutralization IC50,[3],0.018 µg/mL
same,neutralization IC50,[4],0.026 µg/mL
same,neutralization IC50,[5],0.017 µg/mL
same,neutralization IC50,[6],0.41 µg/mL
same,neutralization IC50,[7],0.019 µg/mL
same,neutralization IC50,[8],0.164 µg/mL
same,neutralization IC50,[9],0.079 µg/mL
same,neutralization IC50,[10],> 50 µg/mL
same,neutralization IC50,[11],0.05 µg/mL
same,neutralization IC50,[43],0.04 µg/mL
same,neutralization IC50,[12],0.019 µg/mL
same,neutralization IC50,[13],0.075 µg/mL
same,neutralization IC50,[14],6.95 µg/mL
same,neutralization IC50,[15],> 50 µg/mL
same,neutralization IC50,[16],0.297 µg/mL
same,neutralization IC50,[17],0.02 µg/mL
same,neutralization IC50,[18],> 50 µg/mL
same,neutralization IC50,[19],> 50 µg/mL
same,neutralization IC50,[20],0.12 µg/mL
same,neutralization IC50,[21],0.029 µg/mL
same,neutralization IC50,[22],> 50 µg/mL
same,neutralization IC50,[23],19.2 µg/mL
same,neutralization IC50,[24],> 50 µg/mL
same,neutralization IC50,[25],36.7 µg/mL
same,neutralization IC50,[26],0.279 µg/mL
same,neutralization IC50,[27],0.024 µg/mL
same,neutralization IC50,[28],> 50 µg/mL
same,neutralization IC50,[29],> 50 µg/mL
same,neutralization IC50,[30],0.063 µg/mL
same,neutralization IC50,[31],1.9 µg/mL
same,neutralization IC50,[32],> 50 µg/mL
same,neutralization IC50,[33],> 50 µg/mL
same,neutralization IC50,[34],0.018 µg/mL
same,neutralization IC50,[35],7.57 µg/mL
same,neutralization IC50,[36],0.014 µg/mL
same,neutralization IC50,[37],1.08 µg/mL
same,neutralization IC50,[38],0.059 µg/mL
same,neutralization IC50,[39],> 50 µg/mL
same,neutralization IC50,[40],0.022 µg/mL
same,neutralization IC50,[41],0.371 µg/mL
same,neutralization IC50,[42],21.5 µg/mL
